The target of the assay is His6-REV7_(R124A), recombinant (human, UniProt Q9UI95 1-211, R124A). Briefly: ITC. For orientation: Isothermal titration calorimetry measures the heat released or taken up as one component is titrated into another.
Chain of His6-REV7_(R124A), recombinant (Q9UI95 whole entry R124A): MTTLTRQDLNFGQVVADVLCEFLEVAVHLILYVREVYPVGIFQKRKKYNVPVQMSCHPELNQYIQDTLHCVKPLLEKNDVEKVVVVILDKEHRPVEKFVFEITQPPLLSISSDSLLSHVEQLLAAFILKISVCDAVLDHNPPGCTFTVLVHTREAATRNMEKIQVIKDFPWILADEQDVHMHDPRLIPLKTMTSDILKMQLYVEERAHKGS

B1: RINN1_(28–83), recombinant (domain or fragment, human, UniProt Q6ZNX1 28-83, looked up)
chain: QDFPTRPLSRFIPWFPYDGSKLPLRPKRSPPVISEEAAEDVKQYLTISEHDAKSHS
Take B1: the Kd was found to be 15.8 nM.

For orientation: Kd means a measure of binding affinity in units of concentration.

These data come from article PMC8108093 (Cell, 2018).
